Results published in the supplement of paper PMC9170038.

Tested on: MS2 coat protein
Experiment: apparent KD of MS2 coat protein; designed switch direction (-1 OFF switch, 1 ON switch): -1; higher = weaker reporter binding
Summary of the method: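 Designed RNA switches sharing common flanks were transcribed on Illumina chips by stalled E. coli RNA polymerase. They were titrated with SNAP-549-labelled MS2 coat protein, from 0.7 or 1.5 nM doubling to 3 µM, in Tris-HCl pH 7.5 buffer with KCl, MgCl2, BSA, DTT, tRNA and Tween-20. Titrations ran without input, with 200 uM small-molecule ligand, or with an oligonucleotide input. The apparent KD of each design is the median over its clusters, after curve-fitting of normalised cluster fluorescence.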

[1] = input ligand: microRNA oligo, concentration not stated
[2] = Eterna round: R95, input ligand: FMN 200 uM
[3] = Eterna round: R95, input ligand: microRNA oligo, concentration not stated
[4] = Eterna round: R95, input ligand: none

| Sequence | apparent KD of MS2 coat protein (input ligand: FMN 200 uM) | apparent KD of MS2 coat protein [1] | apparent KD of MS2 coat protein (input ligand: none) | apparent KD of MS2 coat protein [2] | apparent KD of MS2 coat protein [3] | apparent KD of MS2 coat protein [4] |
| --- | --- | --- | --- | --- | --- | --- |
| CAGUACUGAGGAUAUACAUGAGGAUCACCCAUGUGUUCCAGCUAGGAAACUAGCAGAAGUAGAAGGCAGUACUG [salish99_ex3_r3_067] (Eterna round: R96, puzzle: Exclusion 3) | 0.311 µM | 0.017 µM | 0.0233 µM |  |  |  |
| CUGAACCCGGUAGGAUAUAUUGUGGGCGGGCGUGGAACGACAUGAGGAUCACCCAUGUGAUUGAGGUAGAAGGGCCGAGAGGUU [Excl-NG2-LRO17] (Eterna round: R96, puzzle: Exclusion NG 2) | 0.0426 µM | 0.031 µM | 0.0428 µM |  |  |  |
| AGAUGUAGAUGCCGAUCCUACAUGAGGAUCACCCAUGUAGCUAGACGUGCGGGCGGCGCUCGUCGGACUACCAGUAG [salish99_TOv1_r3_097] (puzzle: Sensor v3, turn-off variant 1) |  |  |  | 0.0788 µM | 0.0824 µM | 0.124 µM |
| AGUACUAUGCGAGCUGACUUGCGUAGUGCAGCAGGUGGAACAUGAGGAUCACCCAUGUCCUCAUUUGCUCGUCUUAU [Mat - Sensor v3 - Turn-off var 2 - D4] (puzzle: Sensor v3, turn-off variant 2) |  |  |  | 0.0302 µM | 0.12 µM | 0.0268 µM |
| CGUGACUCAGGAUAUCUAUUAUAUCACAUGAGGAUCACCCAUGUCCAGCGAAAGCUGGAGGGAGAAGGGAGUCACG [Fiskers Ex 5 - 44] (puzzle: Exclusion 5) |  |  |  | 0.0523 µM | 0.136 µM | 0.108 µM |
| AUUGUUUGAUACCUCUAAUACAUGAGGAUCACCCAUGUUAUCGAGGAUAUGCAGAAUAGAUUAGAGCAGAAGGCGAAGUAAUAU [JR_ExcNG3_Sub026] (Eterna round: R96, puzzle: Exclusion NG 3) | 0.0311 µM | 0.0133 µM | 0.0156 µM |  |  |  |
| CAGACACAUGAGGAUCACCCAUGUGAGGAUAUGCGUACGUUGUCCGUAGGCGACGUGCGCAGAAGGCGCAUUGG [JL-ex1-3.12 Eli mod] (puzzle: Exclusion 1) |  |  |  |  | 0.0903 µM |  |
| GUCAUCACACAUGGGAUCAACAUGAGGAUCACCCAUGUUGUCAAGUUUUUUGCUCGUCUUAUAAUACGUUUGAUGAC [Mod-Jxc] (Eterna round: R97, puzzle: Sensor, turn-off variant 1) | 0.0267 µM |  |  |  |  |  |
| AUCAGCUCGUGAGGAUAUACAUGAUAGAUCGAUUAAUUAAUUAAUUUAACAUGAGGAUCACCCAUGUAGAAGGUACGAGCUGAU [ENG2/1-C3] (Eterna round: R96, puzzle: Exclusion NG 2) |  | 0.0396 µM |  |  |  |  |
| GCUGGUCGAGGAUAUACAUUCGUGCUUCGGCACGUAAGAUCACAUGAGGAUCACCCAUGUAGAAGGCGACCAGC [E2/5-A1] (Eterna round: R97, puzzle: Exclusion 2) | 0.93 µM |  | 0.112 µM |  |  |  |
| AGAAAGCAAGGAUAUACAAGGAAACGACGGAAAGUAGAGAGACAUGAGGAUCACCCAUGUAGAAGGUGCGAGAG [JR_Exclu2_Sub033] (puzzle: Exclusion 2) |  |  |  | 0.0321 µM | 0.0245 µM | 0.0291 µM |
| ACAUGAGGAUCACCCAUGUACAGGGUUUAGUUUCAUCGUUUGAAGGAUAUACUCAGUUAGUUGUUGUAGAAGGUCACAUUUUGG [JR_ExcNG3_Sub004] (Eterna round: R96, puzzle: Exclusion NG 3) | 0.138 µM | 0.108 µM | 0.127 µM |  |  |  |
| CGCCUCAGAGGAUAUACUACGGUUUCCUCAUGAUGCGGCCAACAUGAGGAUCACCCAUGUAGAAGGCUGAGAAA [EX2 A.5] (Eterna round: R97, puzzle: Exclusion 2) | 0.0173 µM |  | 0.0522 µM |  |  |  |
| GUCACAUGGGUAUAGGAUCACAUGAGGAUCACCCAUGUGACUAACAAGCUUUUUGCUCGUCUUAUGUCUAUGUGAAG [Stov1/18-A1] (Eterna round: R97, puzzle: Sensor, turn-off variant 1) | 0.0429 µM |  | 0.0269 µM |  |  |  |
| UUUAUGUCAGGAUAUACAUGAGGAUCACCCAUGUAUAUCUUAAAGUAUACAUGGGAAUGUAGAAGGGACGUCCU [LRO-Excl05-29-mod of Pseudoloop5 by Omei] (Eterna round: R97, puzzle: Exclusion 3) | 0.0313 µM |  | 0.0302 µM |  |  |  |
| AACAGUACAGGAUAUACAUGAGGAUCACCCAUGUGACAAUUAAGUGGCGUACCACAAAGUAGAAGGGUACUGGA [Ruby 86] (Eterna round: R96, puzzle: Exclusion 3) | 0.206 µM | 0.0243 µM | 0.031 µM |  |  |  |
